The subject of experiment [1] is human foreskin fibroblasts. As to the kind of experiment: Mitogenicity for fibroblasts ([3H]thymidine incorporation). Format: cell-based. Conditions: 3, 10 or 30 ng/ml, 24 hours. Here is the method: The assay was performed essentially as described in Mori et al., J. Biol. Chem., 1991 266:21158-21164. Serum starved human foreskin fibroblasts were incubated for 24 hours with 1 ml of serum-free medium supplemented with 1 mg/ml BSA and 3 ng/ml, 10 ng/ml or 30 ng/ml of full length PDGF-CC (flPDGF-CC), truncated PDGF-CC (cPDGF-CC) or PDGF-AA in the presence of […] [3H]thymidine. After trichloroacetic acid (TCA) precipitation, the incorporation of [3H]thymidine into DNA was determined using a beta-counter. […] PDGF-AA is included in the experiment as a control.
(Incorporation of labelled thymidine or its analogues reports DNA synthesis.)

The next experiment relates to PDGFR-α. As to the kind of experiment: PDGFR-α activation in cultured hSMC and NIH-3T3 cells (immunoprecipitation, pTyr blot). It counts as cell-based. Conditions: treated cultured hSMC and NIH-3T3 fibroblast cells. As for the experimental part: RNase protection analysis (RPA) was performed according to the manufacturer's protocol (Ambion) to investigate gene expression at mRNA level. Riboprobes were prepared using RNA polymerase (Promega) and ^32P-UTP (Amersham). Mouse β-actin cDNA (250 bp, Ambion) was used as an internal control. For Western blot assay, subconfluent cells were rinsed with cold PBS supplemented with 5 µg/ml of antiprotease cocktail, lysed in RIPA buffer and analyzed on 10% acrylamide SDS PAGE in reducing condition. Two antibodies to PDGFR-α (rabbit polyclonal antibody, dilution: 1/500, Santa Cruz, sc431; and monoclonal peroxidase-labeled anti-rabbit antibody, dilution: 1/2500, Sigma, A-2074) were used for PDGFR-α protein detection. Membranes were developed using the Supersignal System (Pierce). […] The precipitants were analysed on SDS-PAGE, and immunoblotted using a monoclonal anti-phosphotyrosine antibody (Santa Cruz).
The mitogenic and chemotactic effect of PDGF-CC was then tested on SMCs and perivascular fibroblast cells, and the effect of PDGF-CC was compared to that of VEGF and PDGF-AA in both cultured cells and the aortic ring assay (Blacher et al., Angiogenesis, 2001 4:133-42). […] In the aortic ring assay, we quantified the growth and emigration of perivascular fibroblasts from the intact vessel using computer-assisted image analysis after treatment with VEGF and different PDGFs at different concentrations. […]

The target of a further experiment is PDGF beta receptors (Homo sapiens, UniProt P09619). As to the kind of experiment: Competition with 125I-PDGF-BB for binding to PAE-1 cells expressing PDGF beta-receptor. More on the design: expressed in transfected cells. Conditions: 5 ng/ml 125I-PDGF-BB tracer, on ice 90 minutes. Here is the method: Next, full length and truncated PDGF-C were tested for their capacity to bind to human PDGF receptors alpha and beta by analyzing their abilities to compete with PDGF-BB for binding to PDGF receptors. The binding experiments were performed on porcine aortic endothelial-1 (PAE-1) cells stably expressing the human PDGF receptors alpha and beta (Eriksson et al., EMBO J, 1992, 11, 543-550). Binding experiments were performed essentially as in Heldin et al. (EMBO J, 1988, 7:1387-1393). Different concentrations of human full-length and truncated PDGF-C, or human PDGF-BB were mixed with 5 ng/ml of ^125I-PDGF-BB in binding buffer (PBS containing 1 mg/ml of bovine serum albumin). Aliquots were incubated with the receptor expressing PAE-1 cells plated in 24-well culture dishes on ice for 90 minutes. After three washes with binding buffer, cell-bound 125]-PDGF-BB was extracted by lysis of cells in 20 mM Tris-HCl, pH 7.5, 10% glycerol, 1% Triton X-100. The amount of cell bound radioactivity was determined in a gamma-counter. A standard curve for the binding of ^125I-labeled PDGF BB homodimers to PAE-1 cells expressing PDGF alpha-receptor is shown in FIG. 18.
Chain of PDGF beta receptors (P09619 33-1106): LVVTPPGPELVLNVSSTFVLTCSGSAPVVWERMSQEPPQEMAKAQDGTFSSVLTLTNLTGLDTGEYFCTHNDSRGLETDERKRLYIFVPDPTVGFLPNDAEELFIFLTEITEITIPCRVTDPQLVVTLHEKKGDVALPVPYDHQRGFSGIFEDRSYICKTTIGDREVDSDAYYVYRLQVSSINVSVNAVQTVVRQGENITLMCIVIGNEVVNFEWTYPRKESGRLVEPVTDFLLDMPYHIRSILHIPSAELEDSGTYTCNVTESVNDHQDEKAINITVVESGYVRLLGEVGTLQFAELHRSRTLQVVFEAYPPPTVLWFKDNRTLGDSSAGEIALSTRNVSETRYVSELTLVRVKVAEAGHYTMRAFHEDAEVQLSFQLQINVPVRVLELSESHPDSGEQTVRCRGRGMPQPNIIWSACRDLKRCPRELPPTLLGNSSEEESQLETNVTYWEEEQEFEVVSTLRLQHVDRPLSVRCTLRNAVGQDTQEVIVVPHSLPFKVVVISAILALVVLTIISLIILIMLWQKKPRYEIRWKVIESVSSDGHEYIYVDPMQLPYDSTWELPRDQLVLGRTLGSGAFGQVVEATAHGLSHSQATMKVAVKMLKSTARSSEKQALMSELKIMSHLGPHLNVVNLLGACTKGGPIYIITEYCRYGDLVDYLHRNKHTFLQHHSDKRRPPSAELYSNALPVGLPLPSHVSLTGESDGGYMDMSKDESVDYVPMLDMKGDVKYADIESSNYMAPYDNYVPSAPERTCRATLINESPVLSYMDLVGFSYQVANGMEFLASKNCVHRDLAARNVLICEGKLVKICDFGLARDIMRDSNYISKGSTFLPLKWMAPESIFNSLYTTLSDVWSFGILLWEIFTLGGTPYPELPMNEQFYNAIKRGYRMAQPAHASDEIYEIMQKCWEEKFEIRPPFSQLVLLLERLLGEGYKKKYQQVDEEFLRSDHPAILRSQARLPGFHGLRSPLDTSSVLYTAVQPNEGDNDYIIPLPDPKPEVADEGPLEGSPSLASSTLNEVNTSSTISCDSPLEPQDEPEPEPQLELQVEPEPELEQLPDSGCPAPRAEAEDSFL

The target of another experiment is PDGF alpha receptors (Homo sapiens, UniProt P16234). As to the kind of experiment: PDGF alpha-receptor phosphorylation in PAE cells. It counts as cell-based. Details: expressed in transfected cells. Conditions: 100 ng/ml. Here is the method: To test if PDGF-C causes increased phosphorylation of the PDGF alpha-receptor, full length and truncated PDGF-C were tested for their capacity to bind to the PDGF alpha-receptor and stimulate increased phosphorylation. Serum-starved porcine aortic endothelial (PAE) cells stably expressing the human PDGF alpha-receptor were incubated on ice for 90 minutes with PBS supplemented with 1 mg/ml BSA and 10 ng/ml of PDGF-AA, 100 ng/ml of full length human PDGF-CC homodimers (flPDGF-CC), 100 ng/ml of truncated PDGF-CC homodimers (cPDGF-CC), or a mixture of 10 ng/ml of PDGF-AA and 100 ng/ml of truncated PDGF-CC. Full length and truncated PDGF-CC homodimers were produced as described above. Sixty minutes after the addition of the polypeptides, the cells were lysed in lysis buffer (20 mM tris-HCl, pH 7.5, 0.5% Triton X-100, 0.5% deoxycholic acid, 10 mM EDTA, 1 mM orthovanadate, 1 mM PMSF 1% Trasylol). […] Bound antibodies were detected using enhanced chemiluminescence (ECL, Amersham Inc). The filters were then stripped and reprobed with the PDGF alpha-receptor rabbit antisera, and the amount of receptors was determined by incubation with horseradish peroxidase-conjugated anti-rabbit antibodies. Bound antibodies were detected using enhanced chemiluminescence (ECL, Amersham Inc). […]
Chain of PDGF alpha receptors (P16234 24-1089): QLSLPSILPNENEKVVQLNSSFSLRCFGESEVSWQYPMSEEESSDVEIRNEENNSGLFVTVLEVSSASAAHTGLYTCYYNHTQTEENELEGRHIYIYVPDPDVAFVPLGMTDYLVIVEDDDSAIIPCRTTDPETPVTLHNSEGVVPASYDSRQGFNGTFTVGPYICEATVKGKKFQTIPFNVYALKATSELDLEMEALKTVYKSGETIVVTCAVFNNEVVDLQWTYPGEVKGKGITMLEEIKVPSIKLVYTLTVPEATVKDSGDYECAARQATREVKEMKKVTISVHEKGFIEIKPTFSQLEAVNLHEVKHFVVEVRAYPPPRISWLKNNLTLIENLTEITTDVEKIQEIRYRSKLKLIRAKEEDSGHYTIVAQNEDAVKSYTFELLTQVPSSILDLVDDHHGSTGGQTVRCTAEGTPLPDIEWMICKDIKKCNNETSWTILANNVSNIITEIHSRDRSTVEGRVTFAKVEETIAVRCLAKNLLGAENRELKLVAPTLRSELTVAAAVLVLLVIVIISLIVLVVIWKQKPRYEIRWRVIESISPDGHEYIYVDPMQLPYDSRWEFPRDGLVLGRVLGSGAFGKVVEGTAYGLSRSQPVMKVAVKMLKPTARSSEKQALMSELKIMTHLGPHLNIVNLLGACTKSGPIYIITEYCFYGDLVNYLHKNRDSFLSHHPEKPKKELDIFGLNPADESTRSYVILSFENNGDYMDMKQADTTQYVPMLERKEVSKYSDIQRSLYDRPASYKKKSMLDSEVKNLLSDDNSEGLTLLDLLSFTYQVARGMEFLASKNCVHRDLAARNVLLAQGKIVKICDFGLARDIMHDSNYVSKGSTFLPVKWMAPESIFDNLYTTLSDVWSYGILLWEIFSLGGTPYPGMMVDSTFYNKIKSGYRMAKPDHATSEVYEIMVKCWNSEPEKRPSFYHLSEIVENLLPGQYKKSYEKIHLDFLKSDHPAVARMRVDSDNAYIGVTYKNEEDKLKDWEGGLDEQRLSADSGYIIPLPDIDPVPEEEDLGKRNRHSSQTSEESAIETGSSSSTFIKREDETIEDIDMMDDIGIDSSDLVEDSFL

The values that follow come from US20070172423A1, “Composition and method for modulating vasculogenesis for angiogenesis” (priority 1998, published 2007).

B1: PDGF-CC: recombinant human PDGF-CC core domain homodimer, residues 230-345 of full-length PDGF-C (SEQ ID NO:40), produced in baculovirus infected insect cells (protein)
chain: GRKSRVVDLNLLTEEVRLYSCTPRNFSVSIREELKRTDTIFWPGCLLVKRCGGNCACCLHNCNECQCVPSKVTKKYHEVLQLRPKTGVRGLHKSLTDVALEHHEECDCVCRGSTGG
modifications: homodimer; PDGF-C core domain
On to B1, for which, in experiment [1], the “mitogenic activity on fibroblasts” value is recorded as “potent mitogen”. Further, the “PDGFR-α activation (pTyr)” value with PDGFR-α is recorded as “highly activated”. In addition, the “competition for binding to the PDGF beta-receptor” value with PDGF beta receptors is recorded as “failed to compete”. In the experiment with PDGF alpha receptors, the “PDGF alpha-receptor tyrosine phosphorylation” value is “efficiently induced”.
